Results as given in patent publication WO2011083140A1 (dated 2011).
Where “and” joins values, the source holds several entries; their conditions need not be identical. Equal entries are not always repeated.

Tests used:
human CXCR4 [1] = molecular target: T1, human CXCR4 (human, UniProt P61073 1-352); assay: cell-based or functional assay
human CXCR4 [2] = molecular target: T1, human CXCR4; assay: binding to CXCR4 VLP, Table C-3
human CXCR4 [3] = molecular target: T1, human CXCR4; assay: binding to Caki-CXCR4 cells, Table C-3
human CXCR4 [4] = molecular target: T1, human CXCR4; assay: SDF-1 displacement (competition with SDF-1 for CXCR4), Table C-3
mouse CXCR4 = molecular target: T2, mouse CXCR4 (mouse, UniProt P70658 1-359); assay: binding FACS on murine BaF-3 cells, anti-myc detection
T2 construct: whole, on cells; also called mCXCR4
T2 sequence (P70658 whole entry): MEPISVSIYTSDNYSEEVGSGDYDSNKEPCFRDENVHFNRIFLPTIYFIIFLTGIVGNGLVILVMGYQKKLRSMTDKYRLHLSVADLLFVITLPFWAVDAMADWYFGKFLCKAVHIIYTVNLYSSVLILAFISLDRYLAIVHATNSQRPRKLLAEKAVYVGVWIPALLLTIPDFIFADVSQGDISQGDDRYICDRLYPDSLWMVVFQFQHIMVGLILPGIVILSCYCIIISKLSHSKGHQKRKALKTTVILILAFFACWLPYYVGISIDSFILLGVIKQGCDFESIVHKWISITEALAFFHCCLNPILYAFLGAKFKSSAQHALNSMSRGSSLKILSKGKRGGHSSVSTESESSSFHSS

CXCR4 V196E = molecular target: T3, CXCR4 V196E (human, UniProt P61073 1-352); assay: flow cytometry on transiently transfected HEK293T cells, Myc-tag detection
T3 construct: whole, on cells
T3 sequence (P61073 whole entry V196E): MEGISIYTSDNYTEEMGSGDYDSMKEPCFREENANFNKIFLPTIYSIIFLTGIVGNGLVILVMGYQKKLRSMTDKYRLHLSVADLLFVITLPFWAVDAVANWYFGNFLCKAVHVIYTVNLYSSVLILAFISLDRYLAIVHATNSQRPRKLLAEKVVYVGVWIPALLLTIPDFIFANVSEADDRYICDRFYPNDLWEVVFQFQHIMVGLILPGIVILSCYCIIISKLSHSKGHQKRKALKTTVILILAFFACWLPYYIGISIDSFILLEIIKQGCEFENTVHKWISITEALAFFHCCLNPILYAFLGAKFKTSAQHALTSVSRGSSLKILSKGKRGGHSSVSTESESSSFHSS

CXCR4 D187V = molecular target: T4, CXCR4 D187V (human, UniProt P61073 1-352); assay: as above
T4 construct: whole, on cells; Printed as Dl 87V in this copy
T4 sequence (P61073 whole entry D187V): as the sequence (P61073 whole entry V196E) above, with D187V, E196V counted along it

CXCR4 F189V = molecular target: T5, CXCR4 F189V (human, UniProt P61073 1-352); assay: as above
T5 construct: whole, on cells
T5 sequence (P61073 whole entry F189V): as the sequence (P61073 whole entry V196E) above, with F189V, E196V counted along it

T1 sequence (P61073 whole entry): as the sequence (P61073 whole entry V196E) above, with E196V counted along it

| Binder | Chemotaxis Jurkat cells IC50 (M) n=1 (human CXCR4 [1]) [M] | Chemotaxis Jurkat cells IC50 (M) n=2 (human CXCR4 [1]) [M] | cAMP inhibition assay IC50 (M) n=1 (human CXCR4 [1]) [M] | cAMP inhibition assay IC50 (M) n=2 (human CXCR4 [1]) [M] | EC50 (human CXCR4 [2]) [nM] | EC50 (human CXCR4 [3]) [nM] | IC50 (human CXCR4 [4]) [nM] | Chemotaxis IC50 (M) +HSA (human CXCR4 [1]) [M] | Chemotaxis IC50 (M) -HSA (human CXCR4 [1]) [M] | Chemotaxis IC50 (nM) Jurkat (human CXCR4 [1]) | Chemotaxis Jurkat cells IC50 (M) n=3 (human CXCR4 [1]) [M] | binding result (mouse CXCR4) | binding result (CXCR4 V196E) | binding result (CXCR4 D187V) | binding result (CXCR4 F189V) |
| --- | --- | --- | --- | --- | --- | --- | --- | --- | --- | --- | --- | --- | --- | --- | --- |
| 4CXCR014A02 (VHH, also called 14A2; not shown: C-terminal c-myc tag and His6 tag) VHH: EVQLVESGGGLVQAGGSLRLSCVASGISSSIRNMGWYRQAPGKQRESVATISSGGNKDYTDAVKDRFTISRDTTKNTVYLQMSSLKPEDTAVYYCKIEAGTGWATRRGYTYWGQGTQVTVSS | 3.3e-09 | 8.1e-10 | 4e-07 | 2.5e-06 | 0.73 | 4 | 4.1 | – | – | – | – | – | – | – | – |
| 4CXCR010G10 (VHH, Alexa-647 label in the competition FACS of D-2, also called P4CXCR10G10; not shown: C-terminal c-myc tag and His6 tag) VHH: EVQLVESGGGLVQAGGSLRLSCAASGRTFNSYAMAWFRQAPGKERENVAAIRWSGGRATKYADSVRGRFTISKDNAKNTVYLQMSSLKPEDTAVYYCATQTYYRSGLASTRDFDSWGQGTQVTVSS | 2.1e-09 | 2.3e-09 | 1.6e-07 | 9.6e-07 | 0.29 | 3.3 | 7.9 | 7.74e-10 | 4.11e-09 | 2.1 nM and 2.3 nM | 4.1e-09 | no binding | – | – | – |
| 4CXCR281E10 (VHH, Family member of 238D4 (family 17); also called P4CXCR281E10; not shown: C-terminal c-myc tag and His6 tag) VHH: EVQLVESGGGLVQAGGSLRLSCKASGGTFNNYAMGWFRRAPGKEREFVAAITRSGVRSGVSAIYGDSVKDRFTISRDNVKNTLYLQMNTLKPEDTAVYTCAASAIGSGALRRFEYDYSGQGTQVTVSS | – | – | – | – | – | 3.1 | 3.1 | 2.2e-09 | 2.08e-09 | 3.5 nM and 4.7 nM | – | – | – | – | – |
| 4CXCR010E12 (VHH, also called P4CXCR10E12; not shown: C-terminal c-myc tag and His6 tag) VHH: EVQLVESGGGLVQAGGSLRLSCAVSGRTFTSYDMAWFRQAPGKERESVAAIRWTGSSTYYADSVKGRFTISRDNAKSTVYLQMNSLKPEDTAVYYCAARDTGRYRSRTYDYWGQGTQVTVSS | – | – | – | – | 0.22 | – | 3 | 1.12e-09 | 2.78e-09 | 3.5 nM and 1.4 nM | – | no binding | – | – | – |
| 4CXCR010E09 (VHH, Monovalent Nanobody from E. coli; also called 10E9; P4CXCR10E09; not shown: C-terminal c-myc tag and His6 tag) VHH: EVQLVESGGGLVQTGGSLRLSCAASGRTFSSYAMGWFRRAPGKEREFVATISWRGDRKYYSESVKDRFTIARGRSNKNAVYLQMNSLKPEDTAVYYCAKDRAPYGSGSPDVKQYEHWGQGTQVTVSS | – | – | – | – | 0.52 | 2.4 | 4.7 | 1.93e-09 | 3.29e-09 | 3.5 nM and 1.2 nM | – | – | – | – | – |
| 4CXCR015A01 (VHH, not shown: small tags and cut ends, also called 15A1; P4CXCR15A01) VHH: EVQLVESGGGLVQAGGSLRLSCAASGRTFSRAAMGWFRQAPGKEREFVGCALSSAGSALTADSVKGRFTISRDNAKNMVYLQMNNLKPEDTAVYSCVAGGYCTRAGVYPYWGQGTQVTVSS | – | – | – | – | 0.2 | – | 5.1 | 1.18e-09 | 1.7e-09 | – | – | – | – | – | – |
| 4CXCR015H03 (VHH, also called 15H3; P4CXCR15H3; not shown: C-terminal c-myc tag and His6 tag) VHH: EVQLVESGGGSVQTGGSLRVSCAASGLSFNTYTMGWLRQAPGKEREFVAVINWNGDRTNYADSVKGRFSVSRDNAKNTVFLQMNSLRPEDTAVYYCAARPRFTAEPMTSRRYQYWGRGTQVTVSS | – | – | – | – | – | – | – | – | – | – | – | – | binds | binds | binds |
